Source: the supplement of paper PMC10567573

B1: ZNF8 (parent)
chain: RTHTGEKPYTCSVCGKSFSRTTCL

Variants of: B1
Assay: protein stability index of a GFP-peptide fusion (GPS, HEK-293T) (PSI 1-6); higher = more stable
Conditions: c terminus: a fixed tail appended
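Also: lentivirally expressed fusions sorted by FACS into six bins by GFP to DsRed ratio, PSI derived from sequencing read proportions per bin multiplied by bin number.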

Variant | protein stability index
RTHEGEKPYTCSVCGKSFSRTTCL | 3.43
RTHYGEKPYTCSVCGKSFSRTTCL | 2.27
RTHIGEKPYTCSVCGKSFSRTTCL | 2.13
RTHAGEKPYTCSVCGKSFSRTTCL | 2.1
RTHGGEKPYTCSVCGKSFSRTTCL | 2.44
RTHCGEKPYTCSVCGKSFSRTTCL | 2.32
RTHSGEKPYTCSVCGKSFSRTTCL | 2.77
RTHVGEKPYTCSVCGKSFSRTTCL | 1.93
RTHDGEKPYTCSVCGKSFSRTTCL | 2.49
RTHKGEKPYTCSVCGKSFSRTTCL | 3.02
RTHQGEKPYTCSVCGKSFSRTTCL | 2.31
RTHNGEKPYTCSVCGKSFSRTTCL | 3.12
RTHMGEKPYTCSVCGKSFSRTTCL | 2.16
RTHHGEKPYTCSVCGKSFSRTTCL | 2.99
RTHRGEKPYTCSVCGKSFSRTTCL | 2.66
RTHLGEKPYTCSVCGKSFSRTTCL | 2.18
RTHWGEKPYTCSVCGKSFSRTTCL | 1.83
RTHFGEKPYTCSVCGKSFSRTTCL | 1.69
RTHPGEKPYTCSVCGKSFSRTTCL | 2.22
RTHTGEKDYTCSVCGKSFSRTTCL | 2.78
RTHTGEKWYTCSVCGKSFSRTTCL | 2.9
RTHTGEKAYTCSVCGKSFSRTTCL | 3.27
RTHTGEKCYTCSVCGKSFSRTTCL | 2.81
RTHTGEKNYTCSVCGKSFSRTTCL | 2.93

Variant | protein stability index
RTHTGEKSYTCSVCGKSFSRTTCL | 2.17
RTHTGEKMYTCSVCGKSFSRTTCL | 2.62
RTHTGEKQYTCSVCGKSFSRTTCL | 3.05
RTHTGEKHYTCSVCGKSFSRTTCL | 2.63
RTHTGEKRYTCSVCGKSFSRTTCL | 2.46
RTHTGEKLYTCSVCGKSFSRTTCL | 3.12
RTHTGEKFYTCSVCGKSFSRTTCL | 2.25
RTHTGEKTYTCSVCGKSFSRTTCL | 2.86
RTHTGEKVYTCSVCGKSFSRTTCL | 2.59
RTHTGEKEYTCSVCGKSFSRTTCL | 2.95
RTHTGEKIYTCSVCGKSFSRTTCL | 3.05
RTHTGEKGYTCSVCGKSFSRTTCL | 2.9
RTHTGEKKYTCSVCGKSFSRTTCL | 2.04
RTHTGEKYYTCSVCGKSFSRTTCL | 2.95
RTHTYEKPYTCSVCGKSFSRTTCL | 2.15
RTHTREKPYTCSVCGKSFSRTTCL | 2.5
RTHTEEKPYTCSVCGKSFSRTTCL | 3.25
RTHTDEKPYTCSVCGKSFSRTTCL | 2.62
RTHTSEKPYTCSVCGKSFSRTTCL | 3.15
RTHTKEKPYTCSVCGKSFSRTTCL | 2.78
RTHTAEKPYTCSVCGKSFSRTTCL | 2.3
RTHTLEKPYTCSVCGKSFSRTTCL | 2.29
RTHTQEKPYTCSVCGKSFSRTTCL | 2.36
RTHTWEKPYTCSVCGKSFSRTTCL | 2.74

Variant | protein stability index
RTHTHEKPYTCSVCGKSFSRTTCL | 2.25
RTHTNEKPYTCSVCGKSFSRTTCL | 2.66
RTHTTEKPYTCSVCGKSFSRTTCL | 2.4
RTHTFEKPYTCSVCGKSFSRTTCL | 2.64
RTHTPEKPYTCSVCGKSFSRTTCL | 2.4
RTHTVEKPYTCSVCGKSFSRTTCL | 2.87
RTHTIEKPYTCSVCGKSFSRTTCL | 3.05
RTHTCEKPYTCSVCGKSFSRTTCL | 2.84
RTHTMEKPYTCSVCGKSFSRTTCL | 2.48
RTHTGERPYTCSVCGKSFSRTTCL | 2.49
RTHTGEAPYTCSVCGKSFSRTTCL | 2.35
RTHTGEEPYTCSVCGKSFSRTTCL | 2.36
RTHTGETPYTCSVCGKSFSRTTCL | 2.49
RTHTGELPYTCSVCGKSFSRTTCL | 2.72
RTHTGEPPYTCSVCGKSFSRTTCL | 2.96
RTHTGECPYTCSVCGKSFSRTTCL | 2.72
RTHTGEQPYTCSVCGKSFSRTTCL | 2.08
RTHTGEGPYTCSVCGKSFSRTTCL | 3.25
RTHTGEVPYTCSVCGKSFSRTTCL | 2.44
RTHTGENPYTCSVCGKSFSRTTCL | 2.42
RTHTGEDPYTCSVCGKSFSRTTCL | 2.17
RTHTGEMPYTCSVCGKSFSRTTCL | 2.29
RTHTGEHPYTCSVCGKSFSRTTCL | 2.93
RTHTGEYPYTCSVCGKSFSRTTCL | 2.36

Variant | protein stability index
RTHTGEIPYTCSVCGKSFSRTTCL | 2.15
RTHTGEWPYTCSVCGKSFSRTTCL | 2.31
RTHTGESPYTCSVCGKSFSRTTCL | 2.47
RTHTGEFPYTCSVCGKSFSRTTCL | 2.5
YTHTGEKPYTCSVCGKSFSRTTCL | 2.51
RTHTGRKPYTCSVCGKSFSRTTCL | 1.92
RTHTGCKPYTCSVCGKSFSRTTCL | 2.28
RTHTGNKPYTCSVCGKSFSRTTCL | 1.96
RTHTGQKPYTCSVCGKSFSRTTCL | 2.06
RTHTGTKPYTCSVCGKSFSRTTCL | 2.08
RTHTGSKPYTCSVCGKSFSRTTCL | 1.92
RTHTGWKPYTCSVCGKSFSRTTCL | 2.06
RTHTGIKPYTCSVCGKSFSRTTCL | 2.75
RTHTGFKPYTCSVCGKSFSRTTCL | 2.11
RTHTGVKPYTCSVCGKSFSRTTCL | 2.04
RTHTGDKPYTCSVCGKSFSRTTCL | 2.9
RTHTGMKPYTCSVCGKSFSRTTCL | 2.19
RTHTGPKPYTCSVCGKSFSRTTCL | 2.11
RTHTGKKPYTCSVCGKSFSRTTCL | 2.53
RTHTGAKPYTCSVCGKSFSRTTCL | 2.31
RTHTGLKPYTCSVCGKSFSRTTCL | 2.1
RTHTGGKPYTCSVCGKSFSRTTCL | 2.26
